Test results as given in patent publication US20200148733A1 (Pieris, published 2020).
Values joined by “and” are separate entries in the source; they are usually repeats but may differ in a detail not shown here. Equal entries are not always repeated.

T1: lipocalin mutein SEQ ID NO: 9
T1 construct: Human NGAL (lipocalin 2) mutein specific for IL-23p19
T1 chain: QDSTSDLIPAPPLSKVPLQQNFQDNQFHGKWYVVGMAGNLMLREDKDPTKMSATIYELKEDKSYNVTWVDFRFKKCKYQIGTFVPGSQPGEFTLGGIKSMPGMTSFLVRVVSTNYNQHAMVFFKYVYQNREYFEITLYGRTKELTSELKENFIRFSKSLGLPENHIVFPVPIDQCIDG

T2: lipocalin mutein SEQ ID NO: 10
T2 construct: Human NGAL (lipocalin 2) mutein specific for IL-23p19
T2 chain: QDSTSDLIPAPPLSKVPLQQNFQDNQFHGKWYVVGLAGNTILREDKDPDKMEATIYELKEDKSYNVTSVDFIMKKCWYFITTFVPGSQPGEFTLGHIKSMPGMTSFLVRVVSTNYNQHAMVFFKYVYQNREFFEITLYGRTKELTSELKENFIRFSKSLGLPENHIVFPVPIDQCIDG

B1: ABD fusion (SEQ ID NO: 42) (designed binder)
chain: QDSTSDLIPAPPLSKVPLQQNFQDNQFHGKWYVVGEAGNLLLREDKDPRKMTATIYELKEDKSYNVTRVEFGVKTYKYQIGTFVPGSQPGEFTLGGIKSMPGMTSFLVRVVSTNYNQHAMVFFKYVYQNREYFEITLYGRTKELTSELKENFIRFSKSLGLPENHIVFPVPIDQAIDGSAGAVDANSLAEAKVLANRELDKYGVSDYYKNLINNAKTVEGVKALIDEILAALP
B2: human IL-23 (ligand)
chain 1: RAVPGGSSPAWTQCQQLSQKLCTLAWSAHPLVGHMDLREEGDEETTNDVPHIQCGDGCDPQGLRDNSQFCLQRIHQGLIFYEKLLGSDIFTGEPSLLPDSPVGQLHASLLGLSQLLQPEGHHWETQQIPSLSPSQPWQRLLLRFKILRSLQAFVAVAARVFAHGAATLSP
chain 2: IWELKKDVYVVELDWYPDAPGEMVVLTCDTPEEDGITWTLDQSSEVLGSGKTLTIQVKEFGDAGQYTCHKGGEVLSHSLLLLHKKEDGIWSTDILKDQKEPKNKTFLRCEAKNYSGRFTCWWLTTISTDLTFSVKSSRGSSDPQGVTCGAATLSAERVRGDNKEYEYSVECQEDSACPAAEESLPIEVMVDAVHKLKYENYTSSFFIRDIIKPDPPKNLQLKPLKNSRQVEVSWEYPDTWSTPHSYFSLTFCVQVQGKSKREKKDRVFTDKTSATVICRKNASISVRAQDRYYSSSWSEWASVPCS
notes: Heterodimer of p19 and p40; in the proliferation assays CAT # HZ-1254, HumanZyme; also called hIL-23; hIL23
B3: mouse IL-23 (ligand)
chain 1: VPRSSSPDWAQCQQLSRNLCMLAWNAHAPAGHMNLLREEEDEETKNNVPRIQCEDGCDPQGLKDNSQFCLQRIRQGLAFYKHLLDSDIFKGEPALLPDSPMEQLHTSLLGLSQLLQPEDHPRETQQMPSLSSSQQWQRPLLRSKILRSLQAFLAIAARVFAHGAATLTEPLVPTA
chain 2: MWELEKDVYVVEVDWTPDAPGETVNLTCDTPEEDDITWTSDQRHGVIGSGKTLTITVKEFLDAGQYTCHKGGETLSHSHLLLHKKENGIWSTEILKNFKNKTFLKCEAPNYSGRFTCSWLVQRNMDLKFNIKSSSSSPDSRAVTCGMASLSAEKVTLDQRDYEKYSVSCQEDVTCPTAEETLPIELALEARQQNKYENYSTSFFIRDIIKPDPPKNLQMKPLKNSQVEVSWEYPDSWSTPHSYFSLKFFVRIQRKKEKMKETEEGCNQKGAFLVEKTSTEVQCKGGNVCVQAQDRYYNSSCSKWACVPCRVRS
notes: also called mIL-23
B4: IgG antibody (comprising the amino acids shown in SEQ ID NOs: 51 and 52) (antibody, V domains shown)
VH: QVQLVQSGAEVKKPGASVKVSCKASGYIFITYWMTWVRQAPGQGLEWMGQIFPASGSADYNEKFEGRVTMTTDTSTSTAYMELRSLRSDDTAVYYCARGGGGFAYWGQGTLVTVSS
VL: DIQMTQSPSSLSASVGDRVTITCRTSENIYSYLAWYQQKPGKAPKLLIYNAKTLAEGVPSRFSGSGSGTDFTLTISSLQPEDFATYYCQHHYGIPFTFGQGTKVEIKR
notes: also called positive control IgG
B5: lipocalin mutein SEQ ID NO: 15 (designed binder)
chain: QDSTSDLIPAPPLSKVPLQQNFQDNQFHGKWYVVGEAGNLLLREDKDPRKMTATIYELKEDKSYNVTRVEFGVKTYKYQIGTFVPGSQPGEFTLGGIKSMPGMTSFLVRVVSTNYNQHAMVFFKYVYQNREYFEITLYGRTKELTSELKENFIRFSKSLGLPENHIVFPVPIDQAIDG
notes: IL-23p19-specific mutein
B6: negative control SEQ ID NO: 11 (designed binder)
chain: QDSTSDLIPAPPLSKVPLQQNFQDNEFHGKWYVVGLAGNAILREDKDPQKMYATIYELKEDKSYNVTSVLFRKKKCDYWIRTFVPGSQPGEFTLGNIKSYPGLTSYLVRVVSTNYNQHAMVFFKKVSQNREYFKITLYGRTKELTSELKENFIRFSKSLGLPENHIVFPVPIDQCIDG
B7: benchmark antibody 2 (antibody, human IgG4, kappa, V domains shown)
VH: QVQLVQSGAEVKKPGSSVKVSCKASGYSFTDYHISWVRQAPGQGLEWMGVINPEYGTTDYNQRFKGRVTITADESTSTAYMELSSLRSEDTAVYYCARYDYFTGTGAYWGQGTLVTVSS
VL: DIVMTQTPLSLSVTPGQPASISCRSSQSLKHSRGNTFLHWYLQKPGQSPQLLIYKVSNRFIGVPDRFSGSGSGTDFTLKISRVEAEDVGVYYCSQSTHYPFTFGQGTKLEIKR
B8: cynomolgus monkey IL-17A (ligand)
chain: GIAIPRNSGCPNSEDKNFPRTVMVNLNIHNRNTSTNPKRSSDYYNRSTSPWNLHRNEDPERYPSVIWEAKCRHLGCVKADGNVDYHMNSVPIQQEILVLRREPRHCPNSFRLEKILVSVGCTCVTPIVHHVA
notes: also called cIL-17A; cIL-17-A

How the values were obtained:
human IL-23 [1] = molecular target: B2; assay: cell-based or functional assay
[2] = molecular target: T1, lipocalin mutein SEQ ID NO: 9; assay: solution competition ELISA: 10 nM SEQ ID NO: 9 pre-incubated with varied ligand, free mutein captured on immobilised biotinylated hIL-23 (competitor)
Description: (§1) In the following detailed experimental protocol, incubation and washing steps were performed as described above in the competition ELISA protocol. A 384-well plate suitable for fluorescence measurements (Greiner FLUOTRAC™ 600, black flat bottom, high-binding) was coated with 20 μl of Neutravidin at a concentration of 5 μg/ml in PBS over night at 4° C. After washing, the Neutravidin-coated wells were blocked with 100 μl PBS-T/BSA for 1h at room temperature.

[3] = molecular target: T3, lipocalin mutein SEQ ID NO: 6; assay: solution competition ELISA: 100 nM mutein (C-terminal Streptag) pre-incubated with varied ligand, free mutein captured on immobilised biotinylated hIL-23 (competitor)
T3 construct: Tear lipocalin mutein specific for IL-23p19
Description: as §1, with “blocking buffer (PBS-T/BSA)” for “PBS-T/BSA”
(§2) Note that the lipocalein muteins contained a C-terminal Streptag fusion to allow binding and subsequent detection with the aid of an anti-Streptag antibody.
(§3) The residual supernatants were discarded and 20 μl of HRP-conjugated anti-Streptag IgG antibody (Genscript) was added at a predetermined optimal concentration in PBS-T/BSA and incubated for 1 h at RT. After washing, 20 μl fluorogenic HRP substrate (Quantablue, Pierce) was added to each well, and the reaction allowed to proceed for 30 minutes.

[4] = molecular target: T4, lipocalin mutein SEQ ID NO: 12; assay: as above
T4 construct: Tear lipocalin mutein specific for IL-23p19
Description: as §1, with “blocking buffer (PBS-T/BSA)” for “PBS-T/BSA”
as §2, §3

[5] = molecular target: T5, lipocalin mutein SEQ ID NO: 13; assay: as above
T5 construct: Tear lipocalin mutein specific for IL-23p19
Description: as §1, with “blocking buffer (PBS-T/BSA)” for “PBS-T/BSA”
as §2, §3

[6] = molecular target: T2, lipocalin mutein SEQ ID NO: 10; assay: solution competition ELISA: 1 nM SEQ ID NO: 10 pre-incubated with varied ligand, free mutein captured on immobilised biotinylated hIL-23 (competitor)
Description: as §1

human IL-23 [7] = molecular target: B2; assay: competition ELISA (ECL): 0.05 nM biotinylated hIL-23 pre-incubated with varied binder, free hIL-23 captured on coated soluble hIL-23R (competitor); single measurement
Description: (§4) The IgG antibody served as the positive control. […] The detailed experimental procedure was described as follows.
(§5) After washing, 60 μl MSD Read Buffer T (2×) was added to each well and the plate was read within 15 min.
(§6) The resulting Electrochemoluminescence (ECL) signal was measured with a suitable instrument such as the SECTOR Imager 2400 (Meso Scale Discovery).

human IL-23 [8] = molecular target: B2; assay: competition ELISA (ECL): 0.05 nM biotinylated hIL-23 pre-incubated with varied binder, free hIL-23 captured on coated soluble hIL-23R (competitor); average of two measurements
Description: as §4, §5, §6

human IL-23 [9] = molecular target: B2; assay: cell-based or functional assay; remark: listed apart in the source
human IL-23 [10] = molecular target: B2; assay: competition ELISA (ECL): 0.2 nM biotinylated hIL-23 pre-incubated with varied mutein, free hIL-23 captured on coated soluble hIL-23R (competitor)
human IL-23 [11] = molecular target: B2; assay: competition ECL assay: biotinylated hIL-23 pre-incubated with varied binder, free hIL-23 captured on coated soluble hIL-23R (competitor); Example 28
human IL-23 [12] = molecular target: B2; assay: competition ELISA (ECL), 0.2 nM biotinylated hIL-23, coated soluble hIL-23R
human IL-17A = human IL-17A (human, UniProt Q16552 24-155); assay: cell-based or functional assay
[13] = molecular target: T6, lipocalin mutein SEQ ID NO: 5; assay: solution competition ELISA: 0.5 nM SEQ ID NO: 5 pre-incubated with varied ligand, free mutein captured on immobilised biotinylated hIL-17A (competitor)
T6 construct: Human tear lipocalin (Tlc) mutein specific for IL-17A; also called Tlc mutein
Description: as §1, with “blocking buffer (PBS-T/BSA)” for “PBS-T/BSA”

T5 sequence (chain, as listed by the source): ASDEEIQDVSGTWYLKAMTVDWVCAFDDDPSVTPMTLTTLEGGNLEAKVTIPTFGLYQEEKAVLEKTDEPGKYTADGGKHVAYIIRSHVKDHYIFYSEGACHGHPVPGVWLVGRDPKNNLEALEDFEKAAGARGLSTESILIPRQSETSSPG
T6 sequence (chain, as listed by the source): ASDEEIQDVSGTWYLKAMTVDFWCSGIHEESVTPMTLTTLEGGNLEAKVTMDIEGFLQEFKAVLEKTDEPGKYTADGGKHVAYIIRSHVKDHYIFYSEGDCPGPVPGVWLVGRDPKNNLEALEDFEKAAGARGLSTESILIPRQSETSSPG
T3 sequence (chain, as listed by the source): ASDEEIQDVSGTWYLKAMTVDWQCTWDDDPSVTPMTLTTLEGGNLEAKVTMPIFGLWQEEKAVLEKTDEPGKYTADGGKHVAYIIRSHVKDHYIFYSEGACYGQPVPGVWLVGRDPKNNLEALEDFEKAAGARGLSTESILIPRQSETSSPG
T4 sequence (chain, as listed by the source): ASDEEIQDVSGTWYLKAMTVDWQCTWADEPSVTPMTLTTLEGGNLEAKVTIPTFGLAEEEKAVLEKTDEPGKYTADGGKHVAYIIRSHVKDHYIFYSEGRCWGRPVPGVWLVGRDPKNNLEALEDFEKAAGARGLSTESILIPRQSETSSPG

Binder: B1
IC50 (experiment of FIG. 19), hIL-23-induced proliferation of Ba/F3 cells expressing hIL-23R and hIL-12Rβ1 (human IL-23 [1]): 0.22 nM
IC50 (three independent experiments), hIL-23-induced proliferation of Ba/F3 cells expressing hIL-23R and hIL-12Rβ1 (human IL-23 [1]): 0.41 nM

Binder: B2
IC50 [2]: 55 nM
IC50 [3]: 89 nM
IC50 [4]: 66 nM
IC50 [5]: 24 nM
IC50 [6]: 1.4 nM

Binder: B3
IC50 [2]: 88 nM
IC50 [6]: 361 nM

Binder: B4
IC50 (human IL-23 [7]): 0.22 nM and 0.29 nM
IC50 (human IL-23 [8]): 0.26 nM

Binder: B5
EC50 [nM] AVERAGE, hIL-23-induced proliferation of Ba/F3 cells expressing hIL-23R and hIL-12Rβ1 (human IL-23 [9]): 0.6 nM
EC50 [nM] Exp 1, hIL-23-induced proliferation of Ba/F3 cells expressing hIL-23R and hIL-12Rβ1 (human IL-23 [9]): 0.3 nM
EC50 [nM] Exp 2, hIL-23-induced proliferation of Ba/F3 cells expressing hIL-23R and hIL-12Rβ1 (human IL-23 [9]): 0.4 nM
EC50 [nM] Exp 3, hIL-23-induced proliferation of Ba/F3 cells expressing hIL-23R and hIL-12Rβ1 (human IL-23 [9]): 1 nM
EC50 [nM] Exp 4, hIL-23-induced proliferation of Ba/F3 cells expressing hIL-23R and hIL-12Rβ1 (human IL-23 [9]): 0.7 nM
IC50 (human IL-23 [10]): 0.3 nM
IC50 (human IL-23 [11]): 0.27 nM
IC50, hIL-23-induced proliferation of Ba/F3 cells expressing hIL-23R and hIL-12Rβ1 (human IL-23 [1]): 3.8 nM

Binder: B6
binding result (human IL-23 [12]): no binding (tested: starting concentration 500 nM)

Binder: B7
IC50, hIL-17A-induced secretion of G-CSF in U87-MG cells (human IL-17A): 0.6 nM

Binder: B8
IC50 [13]: 0.3 nM
